The record followed here is PMC4772501 (The Journal of Cell Biology, 2016).

The chains are these.
B2: (His)6Spr3 (natural protein)
chain: MKSKGSRLSTDCPVEFPKIVSGFAEEVKIRRQSSQGQYAVDSHPPKSPELKHRRQRSSSFVNGKCRNRDLPLLDNKKAQEINTNSHGQDIGIKNLPRQRELLNAKNGIDFTLMVAGQSGLGKTTFINSLFSTSLIDDDIKENKPIIRYKSIVEGDGTHLNFNVIDTPGFGNNMDNAFTWRTMVNYIDEEIRSYIFQEEQPDRTKMVDNRVHCCLYFLRPSNKGIDTLDVVTMKKLAKRVNLIPVIAKSDLLTKEELKNFKTQVREIIRVQDIPVCFFFGDEVLNATQDIFQKYPFSIIASNEYIFNEKGEKVKGRQYKWGAVDIENEKYCDFKILQKTIFDWNLIDLVESTEDYYEKCRSEMLRTRLLKARDCLTTKSVDITEEQRKFLEEEMNFDEIEENKLKNYKCYEIINKTVMDKVATEWDPEFITRQLEAKKKFNELSNREISKFRDWKKSLFMEQENFNQEIEQLNHKLENLQLECQDLEYKLLIGKSSNSHSTDSATLVNVHIKR

The target of data set [1] is T1, Cdc3 (S. cerevisiae, UniProt P32457 1-520).
T1 sequence: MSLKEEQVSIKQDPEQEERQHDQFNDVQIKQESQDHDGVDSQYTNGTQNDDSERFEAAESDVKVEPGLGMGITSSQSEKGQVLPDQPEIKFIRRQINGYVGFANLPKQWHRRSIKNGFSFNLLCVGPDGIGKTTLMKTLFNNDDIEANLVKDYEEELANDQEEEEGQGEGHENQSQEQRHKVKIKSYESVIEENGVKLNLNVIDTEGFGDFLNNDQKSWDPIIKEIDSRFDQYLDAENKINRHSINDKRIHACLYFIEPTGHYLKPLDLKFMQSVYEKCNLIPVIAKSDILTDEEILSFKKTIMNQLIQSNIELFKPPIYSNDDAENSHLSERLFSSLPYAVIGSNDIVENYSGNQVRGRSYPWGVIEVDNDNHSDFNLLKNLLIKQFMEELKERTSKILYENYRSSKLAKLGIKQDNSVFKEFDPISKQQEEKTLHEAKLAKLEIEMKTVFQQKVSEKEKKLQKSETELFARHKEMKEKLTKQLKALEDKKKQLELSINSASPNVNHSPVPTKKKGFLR
Kind of data set: negative-stain EM, single-particle class averages.

Data set [2] concerns the molecule itself. Briefly: negative-stain EM, single-particle class averages.
In data set [3] the target is B2. Kind of data set: pull-down.
Data set [4] concerns the target T1, Cdc3. Kind of data set: pull-down.
The target in data set [5] is B2. Briefly: negative-stain EM, single-particle class averages.

B1: Cdc10 (natural protein)
chain: MDPLSSVQPASYVGFDTITNQIEHRLLKKGFQFNIMVVGQSGLGKSTLINTLFASHLIDSATGDDISALPVTKTTEMKISTHTLVEDRVRLNINVIDTPGFGDFIDNSKAWEPIVKYIKEQHSQYLRKELTAQRERFITDTRVHAILYFLQPNGKELSRLDVEALKRLTEIANVIPVIGKSDTLTLDERTEFRELIQNEFEKYNFKIYPYDSEELTDEELELNRSVRSIIPFAVVGSENEIEINGETFRGRKTRWSAINVEDINQCDFVYLREFLIRTHLQDLIETTSYIHYEGFRARQLIALKENANSRSSAHMSSNAIQR
As for B1, the binding result (with Cdc3 [1]; in data set [2]; in the data set with (His)6Spr3 [3]) was “binds” throughout.
Take B2: in the data set with Cdc3 [4], the binding result is “binds”.

B3: Spr28 (natural protein)
chain: MFPMKDHSALEQHTLSRDELRRRKGYKKGLQLSILLLGEKGSGKSTFLNNLCGQDISLSDGDYDDDDDKVTNNVTPENGNAIEDIDPGYKTAHLSPGLKLVTRRVYLNDELGVPITLDIILFPGCGDNVDNSQSSVVIKNYLDQQFANVLKEEVRIKRNTKETDGRPHVCLYFLKSTPRGVKKFDIELMKTICDKVNLIPIIPKADGLTETELNLHKDIVRQEISQNNIRVFDFKSDTLGETLALYDMDIDSSSAKSKYDNDTKIKEISPFAIVCSKTFNKNSENRVEHIRTYEWGSLVVEDQNTSDFIYLKAILLGSHLQELKDVTNNVLYENYRAKVLTEKKNNYDIPNYSYIDETSRGSVSNVSTRRNSASRTLGNPDTNDENAYQIHKEIDEKNRIIEDYQRKIDLLEKMLAAPHQNKV
For B3, the binding result in the data set with (His)6Spr3 [5] is on record as “binds”.
